Target: Hck (UniProt P08631)
Assay: phosphorylation enrichment, bacterial display (enrichment ratio); higher = better substrate or ligand; peptides without Tyr show the background
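Further: 11-residue human phosphosite peptides and single-mutation variants displayed on the E. coli surface, counted by deep sequencing, each peptide's frequency after selection divided by its frequency in the unselected input library; frequency after pTyr selection over input frequency; kinase dosed for 20-30% of maximal phosphorylation in three min.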

Hck, sequence (P08631 whole entry, looked up): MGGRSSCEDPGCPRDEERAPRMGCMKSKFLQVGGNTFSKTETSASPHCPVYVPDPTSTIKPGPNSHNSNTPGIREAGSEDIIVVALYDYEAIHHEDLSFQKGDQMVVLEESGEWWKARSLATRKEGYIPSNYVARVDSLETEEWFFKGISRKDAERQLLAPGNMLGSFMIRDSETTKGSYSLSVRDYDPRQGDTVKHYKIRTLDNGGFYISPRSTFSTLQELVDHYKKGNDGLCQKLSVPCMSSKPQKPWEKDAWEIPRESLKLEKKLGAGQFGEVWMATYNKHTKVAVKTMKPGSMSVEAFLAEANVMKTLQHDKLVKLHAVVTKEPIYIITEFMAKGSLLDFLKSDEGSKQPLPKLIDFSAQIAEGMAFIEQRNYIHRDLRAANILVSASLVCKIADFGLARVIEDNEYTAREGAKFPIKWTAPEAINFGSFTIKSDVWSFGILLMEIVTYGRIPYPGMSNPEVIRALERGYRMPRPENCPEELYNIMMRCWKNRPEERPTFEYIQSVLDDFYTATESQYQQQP

Sequence	phosphorylation enrichment
ETLLYYGCRRS [POR_Y564]	5.24
QTEAPYRFIFM [PTPN11_Y511_Q510P_YF]	0.645
SFPSYYTSHVQ [NEFL_Y443]	1.1
CKRQFYLYKGK [RSPO4_Y112]	0.43
MKGEFYRFLAE [YWHAG_Y131_D129E_YF]	0.414
QTWKTYVRHQQ [SFI1_Y164_Q167H]	0.486
KPGVNYYFQVS	0.526
KNRDVSSSDYF [USP24_Y2134_Y2134S]	0.402
YSIDYYRVGGH [NTRK2_Y707_T704I]	1.78
EVVGRYSVHFA [MLH1_Y183_N187Y_YF]	0.504
DRLPSYLDKVR [KRT12_Y139_A137P]	0.794
VDTFWYKLLKR [EPM2A_Y86_F88L]	0.331
PEADKYRLPYA [FGG_Y300_T303P]	0.598
LAVNPYGPPDP	0.516
CTLLPYYSARV [DGKE_Y269]	0.604
FVKEPYIQSRF [HIPK4_Y175_YF]	0.402

Sequence	phosphorylation enrichment
EKKKKYMLPLD [DNM2_Y563_E560K]	0.452
SHTPSYCDEWL [RITA1_Y109_S113W]	0.505
GKPENYRRLDI [VHL_Y175_V170G]	0.327
NKYVAYIESQG [KDM4B_Y34]	0.413
VNTMLYEKFTF [TEK_Y1108_T1106M_YF]	6.73
GFILMYDITNK [RAB3C_Y110_E115K]	0.591
RHSGSYFVTSV [APC_Y2838_L2839F]	0.591
FRASFYRKGGC [ALK_Y1283_YF]	0.477
SLFQFYFQQKG [CHKB_Y381_R377L]	0.488
LWKWRYEELKE [CCDC102B_Y299_K298R]	0.561
KPRKPYTIKKP [BRD2_Y715]	0.924
GEFFRYLAEVA [YWHAG_Y133_D129E_YF]	0.431
NLMPAYHKCIQ [CYP21A2_Y190_Y191H]	0.521
GESQGYDIMEP [MSH2_Y863]	0.487
KFSNQYKATIG [RAB7A_Y37]	0.44
TDIVAYSGRVQ [SPTBN2_Y477]	0.407

Target: EPHB1 (UniProt P54762)
Sequence (P54762 whole entry, looked up): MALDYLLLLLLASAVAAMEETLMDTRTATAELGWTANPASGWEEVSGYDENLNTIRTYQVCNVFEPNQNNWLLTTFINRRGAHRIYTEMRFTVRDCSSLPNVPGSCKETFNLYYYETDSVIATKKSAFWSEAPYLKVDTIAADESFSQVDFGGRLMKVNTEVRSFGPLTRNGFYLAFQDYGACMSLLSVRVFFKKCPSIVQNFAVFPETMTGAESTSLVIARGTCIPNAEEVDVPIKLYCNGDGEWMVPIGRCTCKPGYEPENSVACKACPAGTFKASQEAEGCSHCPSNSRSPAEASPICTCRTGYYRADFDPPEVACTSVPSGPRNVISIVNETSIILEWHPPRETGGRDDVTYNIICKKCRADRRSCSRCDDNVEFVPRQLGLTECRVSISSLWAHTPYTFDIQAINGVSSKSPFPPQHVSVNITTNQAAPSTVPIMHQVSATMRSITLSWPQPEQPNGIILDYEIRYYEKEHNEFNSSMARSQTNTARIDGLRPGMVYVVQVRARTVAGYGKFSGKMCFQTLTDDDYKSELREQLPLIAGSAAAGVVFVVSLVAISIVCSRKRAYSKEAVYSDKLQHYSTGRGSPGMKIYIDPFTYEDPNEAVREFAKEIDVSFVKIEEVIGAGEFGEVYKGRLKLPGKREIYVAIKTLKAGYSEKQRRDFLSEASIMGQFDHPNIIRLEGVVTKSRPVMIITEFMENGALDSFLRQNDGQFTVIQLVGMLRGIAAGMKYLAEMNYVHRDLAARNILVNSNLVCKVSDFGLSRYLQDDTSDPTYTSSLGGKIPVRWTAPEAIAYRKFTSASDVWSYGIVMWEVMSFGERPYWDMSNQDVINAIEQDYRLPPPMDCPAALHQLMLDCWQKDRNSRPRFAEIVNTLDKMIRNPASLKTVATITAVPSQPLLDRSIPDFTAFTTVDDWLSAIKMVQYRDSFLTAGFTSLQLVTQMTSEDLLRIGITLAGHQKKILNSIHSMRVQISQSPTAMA
Assay: as above

Sequence	phosphorylation enrichment
AKFPSYEKNKK [FOXL2_Y91_F90S]	0.577
ETLLYYGCRRS [POR_Y564]	0.63
QTEAPYRFIFM [PTPN11_Y511_Q510P_YF]	0.728
SFPSYYTSHVQ [NEFL_Y443]	1.88
CKRQFYLYKGK [RSPO4_Y112]	0.333
MKGEFYRFLAE [YWHAG_Y131_D129E_YF]	0.426
QTWKTYVRHQQ [SFI1_Y164_Q167H]	0.548
KPGVNYYFQVS	0.699
KNRDVSSSDYF [USP24_Y2134_Y2134S]	0.476
YSIDYYRVGGH [NTRK2_Y707_T704I]	1.52
EVVGRYSVHFA [MLH1_Y183_N187Y_YF]	0.612
DRLPSYLDKVR [KRT12_Y139_A137P]	0.371
VDTFWYKLLKR [EPM2A_Y86_F88L]	0.493
PEADKYRLPYA [FGG_Y300_T303P]	0.89
LAVNPYGPPDP	0.461
CTLLPYYSARV [DGKE_Y269]	0.601
FVKEPYIQSRF [HIPK4_Y175_YF]	0.402

Sequence	phosphorylation enrichment
EKKKKYMLPLD [DNM2_Y563_E560K]	0.52
SHTPSYCDEWL [RITA1_Y109_S113W]	0.645
GKPENYRRLDI [VHL_Y175_V170G]	0.317
NKYVAYIESQG [KDM4B_Y34]	0.554
VNTMLYEKFTF [TEK_Y1108_T1106M_YF]	6.33
GFILMYDITNK [RAB3C_Y110_E115K]	1.15
RHSGSYFVTSV [APC_Y2838_L2839F]	0.517
FRASFYRKGGC [ALK_Y1283_YF]	0.459
SLFQFYFQQKG [CHKB_Y381_R377L]	0.657
LWKWRYEELKE [CCDC102B_Y299_K298R]	1.28
KPRKPYTIKKP [BRD2_Y715]	1.03
GEFFRYLAEVA [YWHAG_Y133_D129E_YF]	0.46
NLMPAYHKCIQ [CYP21A2_Y190_Y191H]	0.501
GESQGYDIMEP [MSH2_Y863]	0.541
KFSNQYKATIG [RAB7A_Y37]	0.47
TDIVAYSGRVQ [SPTBN2_Y477]	0.369
